Results taken from US20240254229A1 (Molecular Partners, published 2024).

B1: DARPin® protein #58 (designed binder)
chain: DLGKKLLEAARAGQDDEVRELLKAGADVNAKDYFSHTPLHLAARNGHLKIVEVLLKAGADVNAKDFAGKTPLHLAAADGHLEIVEVLLKAGADVNAQDIFGKTPADIAADAGHEDIAEVLQKAAGSPTPTPTTPTPTPTTPTPTPTGSDLGKKLLEAARAGQDDEVRELLKAGADVNAKDYFSHTPLHLAARNGHLKIVEVLLKAGADVNAKDFAGKTPLHLAAADGHLEIVEVLLKAGADVNAQDIFGKTPADIAADAGHEDIAEVLQKAAGSPTPTPTTPTPTPTTPTPTPTGSDLGIKLLTAAYDGQLDEVRILLKAGADVNAKDLRGQTPLHYAAGLGHLEIVEVLLKAGADVNAKDLHGWTPLHLAAWSGHLEIVEVLLKAGADVNAQDVEGVTPADLAAVQGHQDIAEVLQKAAGSPTPTPTTPTPTPTTPTPTPTGSDLGWKLLDAAEIGQLDEVRILLKAGADVNAKDKQGITPLHIAAAHGHLEIVEVLLKAGADVNAKDEIGRTPLHLAAFKGHLEIVEVLLKAGADVNAQDIIGETPADLAAVRGHQDIAEVLQKAAGSPTPTPTTPTPTPTTPTPTPTGSDLGVKLLLAAERGQLDEVRILLKAGADVNAKDIAEGYTPLHIAAYQGHLEIVEVLLKAGADVNAKDRYGKTPLHLAAIGGHLEIVEVLLKAGADVNAQDNKGSTPADLAADYGHQDIAEVLQKAAGSPTGSDLGQKLLEAAWAGQDDEVRELLKAGADVNAKNSRGWTPLHTAAQTGHLEIFEVLLKAGADVNAKNDKRVTPLHLAAALGHLEIVEVLLKAGADVNARDSWGTTPADLAAKYGHQDIAEVLQKAA
notes: HSA-HSA-CD70-CD123-CD33-CD3
B2: DARPin® protein #59 (designed binder)
chain: DLGKKLLEAARAGQDDEVRELLKAGADVNAKDYFSHTPLHLAARNGHLKIVEVLLKAGADVNAKDFAGKTPLHLAAADGHLEIVEVLLKAGADVNAQDIFGKTPADIAADAGHEDIAEVLQKAAGSPTPTPTTPTPTPTTPTPTPTGSDLGKKLLEAARAGQDDEVRELLKAGADVNAKDYFSHTPLHLAARNGHLKIVEVLLKAGADVNAKDFAGKTPLHLAAADGHLEIVEVLLKAGADVNAQDIFGKTPADIAADAGHEDIAEVLQKAAGSPTPTPTTPTPTPTTPTPTPTGSDLGIKLLTAAYDGQLDEVRILLKAGADVNAKDLRGQTPLHYAAGLGHLEIVEVLLKAGADVNAKDLHGWTPLHLAAWSGHLEIVEVLLKAGADVNAQDVEGVTPADLAAVQGHQDIAEVLQKAAGSPTPTPTTPTPTPTTPTPTPTGSDLGKKLLEAALEGQLDEVRELLKAGADVNAKDQEGYTPLHLAAALGHLEIVEVLLKAGADVNAKDQIGRTPLHLAAYKGHLEIVEVLLKAGADVNAQDIIGQTPADLAAQRGHQDIAEVLQKAAGSPTPTPTTPTPTPTTPTPTPTGSDLGVKLLLAAERGQLDEVRILLKAGADVNAKDIAEGYTPLHIAAYQGHLEIVEVLLKAGADVNAKDRYGKTPLHLAAIGGHLEIVEVLLKAGADVNAQDNKGSTPADLAADYGHQDIAEVLQKAAGSPTGSDLGQKLLEAAWAGQDDEVRELLKAGADVNAKNSRGWTPLHTAAQTGHLEIFEVLLKAGADVNAKNDKRVTPLHLAAALGHLEIVEVLLKAGADVNARDSWGTTPADLAAKYGHQDIAEVLQKAA
notes: HSA-HSA-CD70-CD123-CD33-CD3
B3: DARPin® protein #60 (designed binder)
chain: DLGKKLLEAARAGQDDEVRELLKAGADVNAKDYFSHTPLHLAARNGHLKIVEVLLKAGADVNAKDFAGKTPLHLAAADGHLEIVEVLLKAGADVNAQDIFGKTPADIAADAGHEDIAEVLQKAAGSPTPTPTTPTPTPTTPTPTPTGSDLGKKLLEAARAGQDDEVRELLKAGADVNAKDYFSHTPLHLAARNGHLKIVEVLLKAGADVNAKDFAGKTPLHLAAADGHLEIVEVLLKAGADVNAQDIFGKTPADIAADAGHEDIAEVLQKAAGSPTPTPTTPTPTPTTPTPTPTGSDLGIKLLTAAYDGQLDEVRILLKAGADVNAKDLRGQTPLHYAAGLGHLEIVEVLLKAGADVNAKDLHGWTPLHLAAWSGHLEIVEVLLKAGADVNAQDVEGVTPADLAAVQGHQDIAEVLQKAAGSPTPTPTTPTPTPTTPTPTPTGSDLGKKLLQAARAGQLDEVRELLKAGADVNAKDQYGRTPLHLAAIKGHLEIVEVLLKAGADVNAKDSLGYTPLHLAAVEGPLEIVEVLLKAGADVNAKDAYGQTPLHIAAAWGHLEIVEVLLKAVADVNAQDKSGKTPADLAARAGHQDIAEVLQKAAGSPTPTPTTPTPTPTTPTPTPTGSDLGVKLLLAAERGQLDEVRILLKAGADVNAKDIAEGYTPLHIAAYQGHLEIVEVLLKAGADVNAKDRYGKTPLHLAAIGGHLEIVEVLLKAGADVNAQDNKGSTPADLAADYGHQDIAEVLQKAAGSPTGSDLGQKLLEAAWAGQDDEVRELLKAGADVNAKNSRGWTPLHTAAQTGHLEIFEVLLKAGADVNAKNDKRVTPLHLAAALGHLEIVEVLLKAGADVNARDSWGTTPADLAAKYGHQDIAEVLQKAA
notes: HSA-HSA-CD70-CD123-CD33-CD3
B4: DARPin® protein #55 (designed binder)
chain: MRGSHHHHHHDLGYKLLQAAYDGQLDEVRILLKAGADVNAKDSRGQTPLHYAASIGHLEIVEVLLKAGADVNAKDDHGWTPLHLAAWSGHLEIVEVLLKAGADVNAQDQEGTTPADLAAVQGHQDIAEVLQKAAGSPTPTPTTPTPTPTTPTPTPTGSDLGKKLLEAALEGQLDEVRELLKAGADVNAKDQEGYTPLHLAAALGHLEIVEVLLKAGADVNAKDSIGRTPLHLAAYKGHLEIVEVLLKAGADVNAQDLLGETPADLAAEQGHQDIAEVLQKAAGSPTPTPTTPTPTPTTPTPTPTGSDLGVKLLRAAVHGQLDEVRILLKAGADVNAKDTDGETPLHYAAQFGHLEIVEVLLKAGADVNAKDAYGATPLHWAAWHGHLEIVEVLLKAGADVNAQDVSGATPADLAAKVGHQDIAEVLQKAAGSPTPTPTTPTPTPTTPTPTPTGSDLGQKLLEAAWAGQDDEVRELLKAGADVNAKNSRGWTPLHTAAQTGHLEIFEVLLKAGADVNAKDDKGVTPLHLAAALGHLEIVEVLLKAGADVNAQDSWGTTPADLAAKYGHEDIAEVLQKAAGSPTPTPTTPTPTPTTPTPTPTGSDLGKKLLEAARAGQDDEVRELLKAGADVNAKDYFSHTPLHLAARNGHLKIVEVLLKAGADVNAKDFAGKTPLHLAAADGHLEIVEVLLKAGADVNAQDIFGKTPADIAADAGHEDIAEVLQKAA
notes: CD70-CD123-CD33-CD3-HSA

How the values were obtained:
[1] = biological target: T1, Molm-13 N1 tumor cells (carrying CD123, CD33 and CD70) (human, UniProt P20138 18-364; P26951 19-378; P32970 1-193); experiment: flow cytometry on Molm-13 N1 cells, 20 uM HSA
T1 construct: whole, on cells; Not a complex: three separate antigens on one cell; also called Molm-13 N1 cells
Protocol: The determination of binding of several multispecific proteins to tumor cells was performed by Fluorescence Activated Cell Sorting (FACS) flow cytometry. Therefore, tumor cells (Molm-13 N1), were seeded at 100′000 cells per well in a 96 well plate. DARPin® protein #56, DARPin® protein #57, DARPin® protein #58, DARPin® protein #59, DARPin® protein #60, DARPin® protein #61 and DARPin® protein #62 were titrated down starting at 100 nM in 1:5 dilution ratio. Tumor cells were resuspended with diluted DARPin® proteins and incubated 60 minutes at 4° C. The assay was performed in PBS including 2% fetal bovine serum and human serum albumin 20 uM (HSA). After washing twice with Phosphate Buffer saline (PBS), DARPin® protein specific tumor cell binding was detected by adding unlabelled primary […] (anti-rabbit 1-1-1 antibody, CePower) at 2 ug/ml. An incubation step of at least 30 minutes at 4° C. followed. Afterwards, cells were washed with PBS and a secondary anti-rabbit antibody labelled with Alexa Fluor 647 antibody (ThermoFisher) at 2 ug/ml was added. The same incubation conditions applied. Finally, the cells were washed twice and resuspended in Cytofix fixation buffer (BD Biosciences) for 15 min at room temperature (RT). Median fluorescence intensities (MFI) of Alexa Fluor 647 DARPin® labelled cells were measured by Attune NxT (Thermo Fisher) using FlowJo software for analyses and GraphPad Prism 8 for data plotting.

[2] = biological target: T2, biotinylated extracellular domain of human CD123 (SEQ ID NO: 88), Fc and Avi tagged (human, UniProt P26951 19-303, biotinylated with BirA-GST (Avi tag)); experiment: SPR (ProteOn XPR36), target on GLC chip, DARPin as analyte
T2 construct: also called hCD123
T2 sequence: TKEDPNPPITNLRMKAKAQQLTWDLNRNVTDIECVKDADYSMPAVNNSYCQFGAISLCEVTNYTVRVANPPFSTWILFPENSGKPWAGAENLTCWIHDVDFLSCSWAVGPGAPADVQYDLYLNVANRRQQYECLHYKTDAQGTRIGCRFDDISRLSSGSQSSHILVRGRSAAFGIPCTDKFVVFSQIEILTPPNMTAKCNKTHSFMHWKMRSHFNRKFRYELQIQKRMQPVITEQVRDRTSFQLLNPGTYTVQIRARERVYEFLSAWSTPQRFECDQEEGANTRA
Text: (§1) For that, DARPin® protein #27, DARPin® protein #29, DARPin® protein #47 and DARPin® protein #48 and DARPin® protein #49, DARPin® protein #50, DARPin® protein #51, DARPin® protein #52, DARPin® protein #31, DARPin® protein #53, DARPin® protein #54, DARPin® protein #55, DARPin® protein #34, DARPin® protein #33, DARPin® protein #39 and DARPin® protein #36 were subcloned and expressed as described above into derivatives of the pQE30 (Qiagen) expression vector, containing an N-terminal His-tag, CD33, CD123 and/or CD70 binding ankyrin repeat domains, followed by a CD3 specific ankyrin repeat domain and for some constructs by a human serum albumin specific ankyrin repeat domain.
(§2) Briefly, biotinylated human CD70, CD123 and CD33 was diluted in PBST (PBS, pH 7.4 containing 0.005% Tween 20®) and coated on a GLC chip (BioRad) to a level of around 200, 460 and 450 resonance units (RU) respectively. HSA in NaOAc pH 5.0 was directly immobilized on the GLC chip to a level of 800 RU. Bio.CD70, bio. CD33 and bio. CD123 required to have Neutravidin coated first to a level of 6000 RU before the biotinylated targets could be applied. The interaction of the selected ankyrin repeat proteins and human CD70, CD123 and CD33 was then measured by injecting 300 μl running buffer (PBS, pH 7.4 containing 0.005% Tween 20®) containing serial dilutions of ankyrin repeat proteins covering a concentration range between 100 nM and 2.6 nM (100, 40, 16, 6.4 and 2.6 nM respectively) for multi-trace SPR measurements, with an association of 120 s and dissociation of 1200 s using a constant flow of 100 μl/min. The regeneration was performed using 30 μl of 4 mM Glycine pH 2. The signals (i.e. resonance unit (RU) values) of the interspots and a reference injection (i.e. injection of running buffer only) were subtracted from the RU traces obtained after injection of ankyrin repeat protein (double-referencing).

[3] = biological target: T3, biotinylated extracellular domain of human CD33 (SEQ ID NO: 87), Fc and Avi tagged (human, UniProt P20138 18-259, biotinylated with BirA-GST (Avi tag)); experiment: as above
T3 construct: also called hCD33; human target hCD33
Text: as §1, §2

[4] = biological target: T4, extracellular domain of human CD70 (SEQ ID NO: 89), hCD70-Fc-trimer, ACRO Biosystems (human, UniProt P32970 52-193, chemically biotinylated where the biotinylated form was used); experiment: as above
T4 construct: also called human CD70-Fc-trimer; Bio.CD70
T4 sequence: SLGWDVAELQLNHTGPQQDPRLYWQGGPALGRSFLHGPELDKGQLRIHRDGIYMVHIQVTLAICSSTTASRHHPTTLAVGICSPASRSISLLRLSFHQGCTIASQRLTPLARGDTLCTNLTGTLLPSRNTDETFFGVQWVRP
Text: as §1, §2

human serum albumin = biological target: T5, human serum albumin (human, UniProt P02768 25-609); experiment: as above
T5 construct: also called HSA; SA
Text: as §1, §2

T1 sequence (P20138 18-364, one chain of several): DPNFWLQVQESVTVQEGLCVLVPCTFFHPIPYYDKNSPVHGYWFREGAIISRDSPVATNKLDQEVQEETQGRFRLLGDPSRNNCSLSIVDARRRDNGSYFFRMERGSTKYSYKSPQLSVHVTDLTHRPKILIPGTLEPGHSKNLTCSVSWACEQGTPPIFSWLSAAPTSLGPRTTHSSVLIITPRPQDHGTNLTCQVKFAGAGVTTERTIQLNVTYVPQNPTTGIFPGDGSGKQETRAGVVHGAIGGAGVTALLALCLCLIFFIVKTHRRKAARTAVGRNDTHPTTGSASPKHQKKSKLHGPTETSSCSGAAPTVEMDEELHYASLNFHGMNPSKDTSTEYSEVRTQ
T3 sequence (P20138 18-259 R69G): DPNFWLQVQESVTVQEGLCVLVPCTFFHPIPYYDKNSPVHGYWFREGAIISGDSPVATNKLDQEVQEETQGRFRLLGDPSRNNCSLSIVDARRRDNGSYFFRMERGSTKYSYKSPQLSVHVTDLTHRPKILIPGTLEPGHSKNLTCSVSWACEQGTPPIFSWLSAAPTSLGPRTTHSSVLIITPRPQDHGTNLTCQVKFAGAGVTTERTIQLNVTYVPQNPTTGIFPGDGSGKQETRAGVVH
T5 sequence (P02768 25-609 limits assumed): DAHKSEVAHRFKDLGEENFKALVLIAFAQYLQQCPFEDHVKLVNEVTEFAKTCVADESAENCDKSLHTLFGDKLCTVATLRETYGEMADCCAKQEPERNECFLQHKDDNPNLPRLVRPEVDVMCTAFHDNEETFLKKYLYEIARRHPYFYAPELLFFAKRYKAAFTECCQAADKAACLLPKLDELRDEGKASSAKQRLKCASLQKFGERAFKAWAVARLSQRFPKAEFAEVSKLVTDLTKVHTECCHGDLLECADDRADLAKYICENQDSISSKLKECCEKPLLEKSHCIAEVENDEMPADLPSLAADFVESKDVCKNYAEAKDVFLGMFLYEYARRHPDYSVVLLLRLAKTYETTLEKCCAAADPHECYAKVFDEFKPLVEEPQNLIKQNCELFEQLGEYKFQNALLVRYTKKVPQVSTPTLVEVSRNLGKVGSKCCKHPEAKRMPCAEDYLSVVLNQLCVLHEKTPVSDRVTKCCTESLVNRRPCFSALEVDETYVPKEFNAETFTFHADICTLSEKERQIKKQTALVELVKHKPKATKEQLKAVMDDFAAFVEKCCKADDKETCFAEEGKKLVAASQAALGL

| Binder | EC50 [1] [nM] | Kd [2] [nM] | Kd [3] [nM] | Kd [4] [nM] | Kd (human serum albumin) [nM] |
| --- | --- | --- | --- | --- | --- |
| B1 | 0.17 | – | – | – | – |
| B2 | 0.19 | – | – | – | – |
| B3 | 0.16 | – | – | – | – |
| B4 | – | 13 | 9.6 | 0.38 | 7.5 |
